Laboratory results from patent publication US20180258163A1 (Chugai, published 2018).

Experiments:
Assay in all cases: SPR, Ab captured on Protein L, 20C
[1] = biological target: T1, soluble cynomolgus monkey FcγRIIIa (cynomolgus monkey, UniProt Q8SPW2 17-208, limits assumed)
T1 construct: soluble His-tagged form; also called cynoFcγRIIIa
Procedure: (§1) Soluble FcγRIa and FcγRIIIa in both human and cynomolgus monkey were produced in the form of His-tagged molecules by methods known to those of ordinary skill in the art. An appropriate amount of rProtein L (BioVision) was immobilized onto the Sensor chip CM4 (GE Healthcare) by the amine coupling method and antibody of interest was captured. Next, soluble FcγRIa or FcγRIIIa was injected with a running buffer (used as a reference solution), and was made to interact with the antibodies captured onto the sensor chip. HBS-EP+ (GE Healthcare) was used as the running buffer, and HBS-EP+ was also used to dilute the soluble FcγRIa or FcγRIIIa. To regenerate the sensor chip, 10 mM glycine-HCl at pH 1.5 was used. All measurements were carried out at 20° C.

soluble human FcγRIIIa = biological target: T2, soluble human FcγRIIIa (human, UniProt P08637 17-208, limits assumed)
T2 construct: soluble His-tagged form; also called hFcγRIIIa
T2 sequence (P08637 17-208 limits assumed): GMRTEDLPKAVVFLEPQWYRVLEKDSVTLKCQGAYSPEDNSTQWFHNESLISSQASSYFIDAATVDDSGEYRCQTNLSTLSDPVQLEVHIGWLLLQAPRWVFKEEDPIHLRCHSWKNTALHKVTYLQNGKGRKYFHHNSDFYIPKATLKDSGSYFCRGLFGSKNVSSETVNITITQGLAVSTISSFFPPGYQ
Procedure: as §1

soluble human FcγRIa = biological target: T3, soluble human FcγRIa (human, UniProt P12314 16-292, limits assumed)
T3 construct: soluble His-tagged form; also called hFcγRIa
T3 sequence (P12314 16-292 limits assumed): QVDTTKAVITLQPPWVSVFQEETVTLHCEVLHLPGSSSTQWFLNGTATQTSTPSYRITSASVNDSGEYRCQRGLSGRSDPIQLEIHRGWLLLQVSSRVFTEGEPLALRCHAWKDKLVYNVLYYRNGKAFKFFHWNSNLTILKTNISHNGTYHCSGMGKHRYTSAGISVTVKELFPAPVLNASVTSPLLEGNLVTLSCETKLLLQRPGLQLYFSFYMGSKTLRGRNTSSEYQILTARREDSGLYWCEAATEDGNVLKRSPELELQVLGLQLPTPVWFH
Procedure: as §1

Measured: binding result

T1 sequence (Q8SPW2 17-208 limits assumed): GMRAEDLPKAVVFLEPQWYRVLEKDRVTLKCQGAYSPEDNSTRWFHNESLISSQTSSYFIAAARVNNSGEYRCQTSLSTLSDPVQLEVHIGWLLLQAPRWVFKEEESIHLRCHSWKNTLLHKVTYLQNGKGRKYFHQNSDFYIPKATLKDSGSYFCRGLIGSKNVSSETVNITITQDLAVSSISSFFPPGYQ

B1: H1009/L395-F1886s (antibody)
heavy: QVQLVESGGGLVQPGGSLRLSCAASGFTFSDYYLSWVRQAPGKGLEWVGLIRNKDNYHTPEYSASVKGRFTISRDDSKNSLYLTMSDLKTEDTAVYYCARENHRYDVELAYWGQGTLVTVSSASTKGPSVFPLAPSSKSTSGGTAALGCLVKDYFPEPVTVSWNSGALTSGVHTFPAVLQSSGLYSLSSVVTVPSSSLGTQTYICNVNHKPSNTKVDKKVEPKSCDKTHTCPPCPAPELRRGPKVFLFPPKPKDTLMISRTPEVTCVVVDVSHEDPEVKFNWYVDGVEVHNAKTKPREEQYNSTYRVVSVLTVLHQDWLNGKEYKCKVSNKALPAPIEKTISKAKGQPREPQVYTLPPSREEMTKNQVSLTCLVKGFYPSDIAVEWESNGQPENNYKTTPPVLDSDGSFFLYSKLTVDKSRWQQGNVFSCSVLHEALHAHTTRKELSLSP
light: DIQMTQSPSSLSASVGDRVTITCRASEIIYSYLAWYQQKPGKAPKLLIYKAKTHADGVPSRFSGSGSGTDFTFTISSLQPEDIATYYCKHHFGFPRTFGQGTKVEIKRTVAAPSVFIFPPSDEQLKSGTASVVCLLNNFYPREAKVQWKVDNALQSGNSQESVTEQDSKDSTYSLSSTLTLSKADYEKHKVYACEVTHQGLSSPVTKSFNRGEC
notes: copies: 2 + 2
no binding: all assays above

B2: H1009/L395-F1974m (antibody)
heavy: QVQLVESGGGLVQPGGSLRLSCAASGFTFSDYYLSWVRQAPGKGLEWVGLIRNKDNYHTPEYSASVKGRFTISRDDSKNSLYLTMSDLKTEDTAVYYCARENHRYDVELAYWGQGTLVTVSSASTKGPSVFPLAPSSKSTSGGTAALGCLVKDYFPEPVTVSWNSGALTSGVHTFPAVLQSSGLYSLSSVVTVPSSSLGTQTYICNVNHKPSNTKVDKKVEPKSCDKTHTCPPCPAPELRRGPSVFLFPPKPKDTLMISRTPEVTCVVVDVSHEDPEVKFNWYVDGVEVHNAKTKPREEQYNSTYRVVSVLTVLHQDWLNGKEYKCKVSNKGLPSSIEKTISKAKGQPREPQVYTLPPSREEMTKNQVSLTCLVKGFYPSDIAVEWESNGQPENNYKTTPPVLDSDGSFFLYSKLTVDKSRWQQGNVFSCSVLHEALHAHTTRKELSLSP
light: DIQMTQSPSSLSASVGDRVTITCRASEIIYSYLAWYQQKPGKAPKLLIYKAKTHADGVPSRFSGSGSGTDFTFTISSLQPEDIATYYCKHHFGFPRTFGQGTKVEIKRTVAAPSVFIFPPSDEQLKSGTASVVCLLNNFYPREAKVQWKVDNALQSGNSQESVTEQDSKDSTYSLSSTLTLSKADYEKHKVYACEVTHQGLSSPVTKSFNRGEC
notes: copies: 2 + 2
no binding: all assays above
